The text below walks through data of the supplement of paper PMC10567573.

The chains are these.
B1: STK38L (parent)
chain: FLPGGDMMTLLMKKDTLTEEETQF
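Also: lentivirally expressed fusions sorted by FACS into six bins by GFP to DsRed ratio, PSI derived from sequencing read proportions per bin multiplied by bin number.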

The variants in this series derive from B1. The series can be described thus: protein stability index of a GFP-peptide fusion (GPS, HEK-293T) (PSI 1-6); higher = more stable. To be noted: c terminus: a fixed tail appended.
As for FLPGGDEMTLLMKKDTLTEEETQF [M7E], the protein stability index was 4.77.

Regarding FLPGGDHMTLLMKKDTLTEEETQF [M7H], the protein stability index amounted to 3.72.

Regarding FLPGKDMMTLLMKKDTLTEEETQF [G5K], the protein stability index was 4.21.

On to FLPGMDMMTLLMKKDTLTEEETQF [G5M], for which the protein stability index is 3.13.

On to FLPGVDMMTLLMKKDTLTEEETQF [G5V], for which the protein stability index was found to be 2.79.

For FLPGTDMMTLLMKKDTLTEEETQF [G5T], the protein stability index was determined as 3.44.

FLPGNDMMTLLMKKDTLTEEETQF [G5N]: the protein stability index was 3.13.

For FLPGCDMMTLLMKKDTLTEEETQF [G5C], the protein stability index stood at 2.94.

For FLPGPDMMTLLMKKDTLTEEETQF [G5P], the protein stability index came out at 2.94.

For FLPGRDMMTLLMKKDTLTEEETQF [G5R], the protein stability index was found to be 3.

FLPGIDMMTLLMKKDTLTEEETQF [G5I]: the protein stability index stood at 2.63.

Regarding FLPGEDMMTLLMKKDTLTEEETQF [G5E], the protein stability index was found to be 3.72.

As for FLPGADMMTLLMKKDTLTEEETQF [G5A], the protein stability index was 2.63.

As for FLPGQDMMTLLMKKDTLTEEETQF [G5Q], the protein stability index is 2.72.

As for FLPGFDMMTLLMKKDTLTEEETQF [G5F], the protein stability index worked out at 2.84.

Regarding FLPGDDMMTLLMKKDTLTEEETQF [G5D], the protein stability index was 4.23.

With FLPGSDMMTLLMKKDTLTEEETQF [G5S], the protein stability index was 3.21.

Take FLPGLDMMTLLMKKDTLTEEETQF [G5L]: the protein stability index was 3.01.

As to FLPGYDMMTLLMKKDTLTEEETQF [G5Y], the protein stability index was 2.63.

Consider FLPGHDMMTLLMKKDTLTEEETQF [G5H], for which the protein stability index was determined as 2.75.

On to ELPGGDMMTLLMKKDTLTEEETQF [F1E], for which the protein stability index worked out at 4.92.

As for ILPGGDMMTLLMKKDTLTEEETQF [F1I], the protein stability index turned out to be 3.88.

With SLPGGDMMTLLMKKDTLTEEETQF [F1S], the protein stability index came to 4.29.

For the variant NLPGGDMMTLLMKKDTLTEEETQF [F1N], the protein stability index turned out to be 4.66.

In the case of WLPGGDMMTLLMKKDTLTEEETQF [F1W], the protein stability index worked out at 3.49.

In the case of CLPGGDMMTLLMKKDTLTEEETQF [F1C], the protein stability index stood at 4.39.

Turning to DLPGGDMMTLLMKKDTLTEEETQF [F1D], the protein stability index was determined as 5.25.

For GLPGGDMMTLLMKKDTLTEEETQF [F1G], the protein stability index worked out at 4.51.

RLPGGDMMTLLMKKDTLTEEETQF [F1R]: the protein stability index was found to be 4.39.

Take TLPGGDMMTLLMKKDTLTEEETQF [F1T]: the protein stability index turned out to be 4.68.

Turning to QLPGGDMMTLLMKKDTLTEEETQF [F1Q], the protein stability index is 4.79.

For YLPGGDMMTLLMKKDTLTEEETQF [F1Y], the protein stability index is 2.33.

In the case of PLPGGDMMTLLMKKDTLTEEETQF [F1P], the protein stability index stood at 4.76.

For the variant VLPGGDMMTLLMKKDTLTEEETQF [F1V], the protein stability index stood at 4.67.

On to KLPGGDMMTLLMKKDTLTEEETQF [F1K], for which the protein stability index was found to be 4.54.

For the variant ALPGGDMMTLLMKKDTLTEEETQF [F1A], the protein stability index turned out to be 4.91.

HLPGGDMMTLLMKKDTLTEEETQF [F1H]: the protein stability index is 4.48.

With MLPGGDMMTLLMKKDTLTEEETQF [F1M], the protein stability index came to 4.39.

Take LLPGGDMMTLLMKKDTLTEEETQF [F1L]: the protein stability index amounted to 3.71.

Take FNPGGDMMTLLMKKDTLTEEETQF [L2N]: the protein stability index amounted to 3.32.

With FDPGGDMMTLLMKKDTLTEEETQF [L2D], the protein stability index came out at 4.38.

In the case of FHPGGDMMTLLMKKDTLTEEETQF [L2H], the protein stability index was 1.91.

Consider FIPGGDMMTLLMKKDTLTEEETQF [L2I], for which the protein stability index was determined as 2.07.

Take FTPGGDMMTLLMKKDTLTEEETQF [L2T]: the protein stability index stood at 2.54.

On to FKPGGDMMTLLMKKDTLTEEETQF [L2K], for which the protein stability index was 4.24.

Consider FVPGGDMMTLLMKKDTLTEEETQF [L2V], for which the protein stability index was 1.78.

In the case of FPPGGDMMTLLMKKDTLTEEETQF [L2P], the protein stability index stood at 2.65.

FRPGGDMMTLLMKKDTLTEEETQF [L2R]: the protein stability index was 4.15.

As for FSPGGDMMTLLMKKDTLTEEETQF [L2S], the protein stability index stood at 2.6.

In the case of FCPGGDMMTLLMKKDTLTEEETQF [L2C], the protein stability index is 1.42.

On to FFPGGDMMTLLMKKDTLTEEETQF [L2F], for which the protein stability index worked out at 3.08.

FGPGGDMMTLLMKKDTLTEEETQF [L2G]: the protein stability index was 2.23.

In the case of FYPGGDMMTLLMKKDTLTEEETQF [L2Y], the protein stability index amounted to 3.68.

Turning to FEPGGDMMTLLMKKDTLTEEETQF [L2E], the protein stability index amounted to 4.84.

For FWPGGDMMTLLMKKDTLTEEETQF [L2W], the protein stability index came to 3.

With FQPGGDMMTLLMKKDTLTEEETQF [L2Q], the protein stability index stood at 2.15.

For the variant FMPGGDMMTLLMKKDTLTEEETQF [L2M], the protein stability index was 2.33.

As to FLPGGCMMTLLMKKDTLTEEETQF [D6C], the protein stability index came out at 2.24.

With FLPGGWMMTLLMKKDTLTEEETQF [D6W], the protein stability index amounted to 1.4.

As to FLPGGPMMTLLMKKDTLTEEETQF [D6P], the protein stability index was found to be 1.87.

With FLPGGEMMTLLMKKDTLTEEETQF [D6E], the protein stability index turned out to be 2.02.

FLPGGTMMTLLMKKDTLTEEETQF [D6T]: the protein stability index came to 1.82.

On to FLPGGFMMTLLMKKDTLTEEETQF [D6F], for which the protein stability index came out at 1.96.

On to FLPGGRMMTLLMKKDTLTEEETQF [D6R], for which the protein stability index was 2.18.

FLPGGYMMTLLMKKDTLTEEETQF [D6Y]: the protein stability index worked out at 2.42.

As to FLPGGAMMTLLMKKDTLTEEETQF [D6A], the protein stability index came out at 1.7.

On to FLPGGVMMTLLMKKDTLTEEETQF [D6V], for which the protein stability index is 2.33.

On to FLPGGKMMTLLMKKDTLTEEETQF [D6K], for which the protein stability index stood at 1.98.

As to FLPGGNMMTLLMKKDTLTEEETQF [D6N], the protein stability index was determined as 2.69.

FLPGGQMMTLLMKKDTLTEEETQF [D6Q]: the protein stability index was 1.96.

FLPGGMMMTLLMKKDTLTEEETQF [D6M]: the protein stability index came out at 2.54.

As to FLPGGLMMTLLMKKDTLTEEETQF [D6L], the protein stability index was found to be 2.71.

As for FLPGGSMMTLLMKKDTLTEEETQF [D6S], the protein stability index amounted to 2.07.

On to FLPGGHMMTLLMKKDTLTEEETQF [D6H], for which the protein stability index is 1.72.

As for FLPGGIMMTLLMKKDTLTEEETQF [D6I], the protein stability index worked out at 1.85.

As for FLPSGDMMTLLMKKDTLTEEETQF [G4S], the protein stability index worked out at 2.61.

As to FLPFGDMMTLLMKKDTLTEEETQF [G4F], the protein stability index was determined as 2.41.

On to FLPLGDMMTLLMKKDTLTEEETQF [G4L], for which the protein stability index came out at 2.42.

In the case of FLPVGDMMTLLMKKDTLTEEETQF [G4V], the protein stability index was found to be 3.39.

Consider FLPWGDMMTLLMKKDTLTEEETQF [G4W], for which the protein stability index was 1.82.

On to FLPAGDMMTLLMKKDTLTEEETQF [G4A], for which the protein stability index turned out to be 2.78.

For the variant FLPEGDMMTLLMKKDTLTEEETQF [G4E], the protein stability index was 3.57.

For the variant FLPTGDMMTLLMKKDTLTEEETQF [G4T], the protein stability index was determined as 3.34.

Take FLPRGDMMTLLMKKDTLTEEETQF [G4R]: the protein stability index stood at 3.26.

Regarding FLPPGDMMTLLMKKDTLTEEETQF [G4P], the protein stability index turned out to be 3.95.

Consider FLPIGDMMTLLMKKDTLTEEETQF [G4I], for which the protein stability index stood at 2.35.

FLPNGDMMTLLMKKDTLTEEETQF [G4N]: the protein stability index came out at 2.76.

On to FLPCGDMMTLLMKKDTLTEEETQF [G4C], for which the protein stability index is 3.09.

As for FLPHGDMMTLLMKKDTLTEEETQF [G4H], the protein stability index turned out to be 3.29.

On to FLPKGDMMTLLMKKDTLTEEETQF [G4K], for which the protein stability index worked out at 3.27.

Regarding FLPYGDMMTLLMKKDTLTEEETQF [G4Y], the protein stability index came to 2.29.

Turning to FLPDGDMMTLLMKKDTLTEEETQF [G4D], the protein stability index was 3.84.

Turning to FLPQGDMMTLLMKKDTLTEEETQF [G4Q], the protein stability index amounted to 3.36.

For FLPMGDMMTLLMKKDTLTEEETQF [G4M], the protein stability index is 2.35.
